± gives the standard deviation of the averaged measurements.

Here are results for 44 variants from the supplement of paper PMC12783771.

Sequences and labels used below:
B1: library; numbered along this chain (parent)
chain: MNIQIGELAKRTACPVVTIRFYEQEGLLPPPGRSRGNFRLYGEEHVERLQFIRHCRSLDMPLSDVRTLLSYRKRPDQDCGEVNMLLDEHIRQVESRIGALLELKHHLVELREACSGARPAQSCGILQGLSDCVCDTRGTTAHPSD

In data set [1] the parent is B1. Put plainly: sfGFP reporter fluorescence (15 h) (µM FITC); higher = higher leak. The following applies: library round: Round 0; ligand: none. The essentials: (§1)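 Values are endpoint sfGFP fluorescence given as µM FITC equivalents. Fluorescence was read at 485/528 nm on a Synergy Neo2, and FITC standard curves were prepared in 50 mM sodium borate pH 8.5. Reactions of 1 μL combined BL21 Star (DE3) PANOx-SP extract, pPbrR-sfGFP reporter, 30 μg/mL GamS and linear PbrR templates (PCR-made, Echo-normalized to 5 nM), with 1 µM lead chloride, 30 µM zinc acetate or no metal, for 15 hr at 30 °C.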

Data set [2] covers variants of B1. Put plainly: sfGFP reporter fluorescence (15 h) (µM FITC); higher = stronger transcriptional activation. The note with it: library round: Round 0. The procedure, abridged:
as §1

With M60L K104V L107C, the sfGFP reporter fluorescence in data set [1] came out at 1.11 ± 0.099; in data set [2] (ligand: 1 µM Pb), 3.04 ± 0.88; in data set [2] (ligand: 30 µM Zn), 2.76 ± 0.63.
On to M60L P61N, for which the sfGFP reporter fluorescence in data set [1] worked out at 0.25 ± 0.0062; in data set [2] (ligand: 1 µM Pb), 1.01 ± 0.48; in data set [2] (ligand: 30 µM Zn), 3.5 ± 0.044.
For L126C, the values for the sfGFP reporter fluorescence in data set [1], in data set [2] (ligand: 1 µM Pb) and in data set [2] (ligand: 30 µM Zn) were 0.059 ± 0.0036, 0.0572 ± 0.001 and 0.0563 ± 0.0029, respectively.
On the same counts, the results for E7Q are 0.0605, 0.0891 ± 0.0026 and 1.18 ± 0.057.
In the case of E7V, the figures for the sfGFP reporter fluorescence in data set [1], in data set [2] (ligand: 1 µM Pb) and in data set [2] (ligand: 30 µM Zn) were 0.06285 ± 0.00026, 0.0865 and 0.961 ± 0.14, respectively.
Take E7N: the values for the sfGFP reporter fluorescence in data set [1], in data set [2] (ligand: 1 µM Pb) and in data set [2] (ligand: 30 µM Zn) were 0.05919 ± 0.00026, 0.088 ± 0.0047 and 0.858 ± 0.081, respectively.
Take E7K: the sfGFP reporter fluorescence is 0.0662 ± 0.00078 in data set [1], 0.113 ± 0.0023 in data set [2] (ligand: 1 µM Pb) and 1.99 ± 0.1 in data set [2] (ligand: 30 µM Zn).
On the same counts, the results for E7M are 0.0616 ± 0.0021, 0.0854 ± 0.0021 and 0.859 ± 0.01.
On the same counts, the results for E7G are 0.05882 ± 0.00026, 0.0755 ± 0.0042 and 0.626 ± 0.02.
On the same counts, the results for D64K K104V L107C G128I are 2.19 ± 0.12, 4.16 ± 0.23 and 3.35 ± 0.64.
On to V46G, for which the sfGFP reporter fluorescence amounted to 0.05498 ± 0.00052 in data set [1], 0.059 ± 0.0021 in data set [2] (ligand: 1 µM Pb) and 0.106 ± 0.013 in data set [2] (ligand: 30 µM Zn).
On the same counts, the results for V46T are 0.057 ± 0.0013, 0.07733 ± 0.00052 and 0.419 ± 0.0078.
On the same counts, the results for V46S are 0.055 ± 0.0021, 0.0687 ± 0.00078 and 0.306 ± 0.059.
On the same counts, the results for V46Y are 0.0588 ± 0.00078, 0.0861 ± 0.0067 and 0.6826 ± 0.0049.
With D131H, the sfGFP reporter fluorescence in data set [1] came out at 0.0621 ± 0.0013; in data set [2] (ligand: 1 µM Pb), 0.0957 ± 0.0026; in data set [2] (ligand: 30 µM Zn) it was 0.996 ± 0.034.
As for D131Q, the sfGFP reporter fluorescence in data set [1] was 0.06432 ± 0.00026; in data set [2] (ligand: 1 µM Pb), 0.124 ± 0.0029; in data set [2] (ligand: 30 µM Zn) it was 1.26 ± 0.24.
On the same counts, the results for D131N are 0.0654 ± 0.00078, 0.103 ± 0.0093 and 1.13 ± 0.24.
On the same counts, the results for D131L are 0.0663 ± 0.0042, 0.119 ± 0.0091 and 0.994 ± 0.19.
On the same counts, the results for D131T are 0.06267 ± 0.00052, 0.0914 ± 0.012 and 0.747 ± 0.23.
For the variant D131C, the figures for the sfGFP reporter fluorescence in data set [1], in data set [2] (ligand: 1 µM Pb) and in data set [2] (ligand: 30 µM Zn) were 0.05919 ± 0.00026, 0.0779 ± 0.0013 and 0.242 ± 0.062, respectively.
On the same counts, the results for M60L L107C are 1.01 ± 0.029, 1.43 ± 0.057 and 3.93 ± 0.055.
On the same counts, the results for V108W are 0.0583 ± 0.001, 0.072 ± 0.0029 and 0.554 ± 0.0067.
On the same counts, the results for V108G are 0.057 ± 0.00078, 0.0658 ± 0.0049 and 0.567 ± 0.1.
With V108Y, the figures for the sfGFP reporter fluorescence in data set [1], in data set [2] (ligand: 1 µM Pb) and in data set [2] (ligand: 30 µM Zn) were 0.0608 ± 0.0015, 0.108 ± 0.0021 and 1.18 ± 0.067, respectively.
On the same counts, the results for V108E are 0.0579 ± 0.001, 0.06652 ± 0.00026 and 0.62 ± 0.11.
V108K: the sfGFP reporter fluorescence came to 0.0607 ± 0.00078 in data set [1], 0.0803 ± 0.0026 in data set [2] (ligand: 1 µM Pb) and 1.13 ± 0.093 in data set [2] (ligand: 30 µM Zn).
Consider V108D, for which the sfGFP reporter fluorescence in data set [1] is 0.061 ± 0.00078; in data set [2] (ligand: 1 µM Pb), 0.0931 ± 0.0015; in data set [2] (ligand: 30 µM Zn), 1.45 ± 0.068.
On the same counts, the results for M60G are 0.0561 ± 0.0015, 0.05772 ± 0.00026 and 0.0588 ± 0.0013.
Consider M60P, for which the sfGFP reporter fluorescence in data set [1] is 0.0605; in data set [2] (ligand: 1 µM Pb), 0.05974 ± 0.00052; in data set [2] (ligand: 30 µM Zn) it was 0.05516 ± 0.00026.
Regarding M60L, the results for the sfGFP reporter fluorescence in data set [1], in data set [2] (ligand: 1 µM Pb) and in data set [2] (ligand: 30 µM Zn) were 0.1063 ± 0.00052, 0.295 ± 0.035 and 2.8 ± 0.031, respectively.
On the same counts, the results for D87A are 0.0596 ± 0.0049, 0.0652 ± 0.0015 and 0.393 ± 0.011.
Turning to L129W, the sfGFP reporter fluorescence was determined as 0.0572 ± 0.0026 in data set [1], 0.06047 ± 0.00052 in data set [2] (ligand: 1 µM Pb) and 0.05717 ± 0.00052 in data set [2] (ligand: 30 µM Zn).
As to L129K, the sfGFP reporter fluorescence in data set [1] amounted to 0.0581 ± 0.00078; in data set [2] (ligand: 1 µM Pb), 0.059 ± 0.0021; in data set [2] (ligand: 30 µM Zn), 0.05662 ± 0.00026.
On the same counts, the results for L129M are 0.0577 ± 0.00078, 0.05901 ± 0.00052 and 0.0788 ± 0.0047.
Consider L129D, for which the sfGFP reporter fluorescence in data set [1] came to 0.0588 ± 0.0013; in data set [2] (ligand: 1 µM Pb), 0.05992 ± 0.00026; in data set [2] (ligand: 30 µM Zn), 0.055 ± 0.001.
Take L129P: the sfGFP reporter fluorescence in data set [1] stood at 0.05387 ± 0.00052; in data set [2] (ligand: 1 µM Pb), 0.055 ± 0.0036; in data set [2] (ligand: 30 µM Zn), 0.0491 ± 0.0026.
On the same counts, the results for K104V G128I are 0.0826 ± 0.006, 0.287 ± 0.021 and 1.84 ± 0.44.
Take P61N D64K K104V: the sfGFP reporter fluorescence amounted to 0.26 ± 0.0026 in data set [1], 0.752 ± 0.037 in data set [2] (ligand: 1 µM Pb) and 2.41 ± 0.1 in data set [2] (ligand: 30 µM Zn).
On the same counts, the results for K104Y are 0.059 ± 0.0083, 0.113 ± 0.028 and 1.09 ± 0.13.
On the same counts, the results for C55W are 0.0731 ± 0.0029, 0.0935 ± 0.0015 and 0.136 ± 0.0083.
For the variant C55N, the values for the sfGFP reporter fluorescence in data set [1], in data set [2] (ligand: 1 µM Pb) and in data set [2] (ligand: 30 µM Zn) were 0.0594 ± 0.0015, 0.0583 ± 0.0015 and 0.057 ± 0.0034, respectively.
For C55Q, the sfGFP reporter fluorescence in data set [1] turned out to be 0.0594 ± 0.001; in data set [2] (ligand: 1 µM Pb), 0.0588 ± 0.0013; in data set [2] (ligand: 30 µM Zn) it was 0.0585 ± 0.00078.
On the same counts, the results for E25A are 0.0634 ± 0.0036, 0.0823 ± 0.0029 and 0.611 ± 0.041.
On the same counts, the results for L110Y are 0.0581 ± 0.00078, 0.0597 and 0.0656 ± 0.001.
